According to US20180037644A1 (Pfizer, published 2018):
Where two headings read alike, the source gives them in different places. Each block holds one binder with its values, some of them ahead of it.

Tests used:
[1] = molecular target: T1, wild-type cynomolgus monkey IL-33 (cynomolgus monkey); test: SPR, Experiment 2; reference: human IL-33 (WT + DTT)
T1 construct: Used reduced (DTT-treated); His6 in the entry; also called cyno IL-33 (WT + DTT); pfe cyno WT IL-33
T1 chain: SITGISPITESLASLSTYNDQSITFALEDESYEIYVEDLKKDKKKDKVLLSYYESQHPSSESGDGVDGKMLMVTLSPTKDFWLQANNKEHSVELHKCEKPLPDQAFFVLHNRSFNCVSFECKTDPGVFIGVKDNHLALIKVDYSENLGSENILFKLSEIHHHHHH
Description: (§1) Biacore kinetic assays were conducted at 37° C. at a collection rate of 1 Hz on a Biacore T200 instrument (GE Healthcare). Reduced and non-reduced wild-type human IL-33 and reduced wild-type cynomolgus monkey IL-33 were covalently coupled to a CM5 sensor chip (catalogue number BR100530, GE Healthcare) using an amine coupling kit (catalogue number BR100050, GE Healthcare) according to the manufacturer's protocol. Flow cell 1 was activated and blocked for use as a reference flow cell. […] The dilution and running buffer was HBS-EP+(10 mM HEPES pH 7.4, 0.15M NaCl, 3 mM EDTA, 0.05% P-20). Rate constants and affinities were determined by fitting the resulting sensorgram data to a 1:1 model in Biacore T200 Evaluation software version 1.0 (GE Healthcare). […] Kinetic properties of the bivalent IgG cannot be directly compared to those of monovalent Fab fragments and are not presented here.

[2] = molecular target: T1, wild-type cynomolgus monkey IL-33; test: SPR, IL-33 amine-coupled to CM5, Fab in solution, 37 C, Experiment 2
Description: as §1

[3] = molecular target: T2, human IL-33 WT, reduced with DTT (human, UniProt O95760 112-270); test: as above
T2 construct: Wild-type cysteines, FLAG tag in the entry; reduced with 3 mM DTT before use; also called huIL33 wt; hu IL-33 (WT + DTT)
T2 sequence: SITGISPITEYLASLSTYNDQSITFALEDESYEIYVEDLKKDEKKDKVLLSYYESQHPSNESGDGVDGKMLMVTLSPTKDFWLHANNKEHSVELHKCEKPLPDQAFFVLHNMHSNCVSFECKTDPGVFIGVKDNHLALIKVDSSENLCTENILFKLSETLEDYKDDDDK
Description: as §1

[4] = molecular target: T2, human IL-33 WT, reduced with DTT; test: SPR, IL-33 amine-coupled to CM5, rat Fab in solution, 37 C
Description: Parallel studies were performed with non-reduced IL-33 and with IL-33 samples that had been reduced with 3 mM DTT for 3 hr. at room temperature prior to immobilization. […] Flow cell 1 was activated and blocked for use as a reference flow cell. […] Dissociation was monitored for 3600 seconds. Biacore kinetic assays were conducted at 37° C. at a collection rate of 1 Hz on a Biacore T200 instrument (GE Healthcare). Rate constants and affinities were determined by fitting the resulting sensorgram data to a 1:1 model in Biacore T200 Evaluation software version 1.0 (GE Healthcare).

human IL-33 WT (R&D) [5] = molecular target: T3, human IL-33 WT (R&D) (human, UniProt O95760 112-270); test: cell-based or functional assay
T3 sequence: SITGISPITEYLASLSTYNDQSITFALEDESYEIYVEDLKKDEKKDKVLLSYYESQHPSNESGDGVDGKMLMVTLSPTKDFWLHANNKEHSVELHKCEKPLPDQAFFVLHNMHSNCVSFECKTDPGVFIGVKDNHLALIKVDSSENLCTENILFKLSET

[6] = molecular target: T4, cynomolgus monkey IL-33 (cys mut) (cynomolgus monkey); test: cell-based or functional assay
T4 chain: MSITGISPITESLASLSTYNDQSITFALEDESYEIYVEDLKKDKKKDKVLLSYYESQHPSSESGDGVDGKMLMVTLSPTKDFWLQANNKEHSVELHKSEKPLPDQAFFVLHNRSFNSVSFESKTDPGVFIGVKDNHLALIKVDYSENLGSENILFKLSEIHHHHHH

human IL-33 (mm2) [7] = molecular target: T5, human IL-33 (mm2) (human, UniProt O95760 112-270); test: cell-based or functional assay
T5 chain: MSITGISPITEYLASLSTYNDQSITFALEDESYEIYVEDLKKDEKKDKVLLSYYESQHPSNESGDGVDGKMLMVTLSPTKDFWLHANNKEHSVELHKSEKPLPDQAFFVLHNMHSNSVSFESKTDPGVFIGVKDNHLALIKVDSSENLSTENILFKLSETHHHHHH

[8] = molecular target: T4, cynomolgus monkey IL-33 (cys mut); test: cell-based or functional assay
human IL-33 (mm2) [9] = molecular target: T5, human IL-33 (mm2); test: cell-based or functional assay
human IL-33 WT (R&D) [10] = molecular target: T3, human IL-33 WT (R&D); test: cell-based or functional assay; remark: listed apart in the source
[11] = molecular target: T4, cynomolgus monkey IL-33 (cys mut); test: cell-based or functional assay
human IL-33 (mm2) [12] = molecular target: T5, human IL-33 (mm2); test: cell-based or functional assay
human IL-33 (mm2) [13] = molecular target: T5, human IL-33 (mm2); test: cell-based or functional assay
[14] = molecular target: T1, wild-type cynomolgus monkey IL-33; test: cell-based or functional assay
human IL-33 WT (R&D) [15] = molecular target: T3, human IL-33 WT (R&D); test: cell-based or functional assay; remark: listed apart in the source
[16] = molecular target: T4, cynomolgus monkey IL-33 (cys mut); test: cell-based or functional assay
human IL-33 (mm2) [17] = molecular target: T5, human IL-33 (mm2); test: cell-based or functional assay
human IL-33 WT (R&D) [18] = molecular target: T3, human IL-33 WT (R&D); test: cell-based or functional assay; remark: listed apart in the source
human IL-33 (mm2) [19] = molecular target: T5, human IL-33 (mm2); test: cell-based or functional assay
[20] = molecular target: T4, cynomolgus monkey IL-33 (cys mut); test: cell-based or functional assay
human IL-33 (mm2) [21] = molecular target: T5, human IL-33 (mm2); test: cell-based or functional assay

B3: IL33-10 (antibody, human IgG1, kappa)
heavy: not shown
light: DIQMTQSPSSLSASVGDRVTITCKASQNINKHLDWYQQKPGKAPKLLIYFTNNLQTGVPSRFSGSGSGTDFTLTISSLQPEDFATYYCFQYNNGWTFGGGTKVEIKRTVAAPSVFIFPPSDEQLKSGTASVVCLLNNFYPREAKVQWKVDNALQSGNSQESVTEQDSKDSTYSLSSTLTLSKADYEKHKVYACEVTHQGLSSPVTKSFNRGEC
- IC50, HEK293 ST2 NFkB WT IL-33 (human IL-33 WT (R&D) [5]): 0.117 nM
- IC50, HEK293 ST2 NFkB cyno IL-33 [6]: 0.059 nM
- IC50, HEK293 ST2 NFkB mm2 (human IL-33 (mm2) [7]): 0.031 nM
- IC50, whole blood IFNγ (human IL-33 (mm2) [7]): 0.121 nM
- IC50, HEK293 ST2 NFkB [8]: 0.132 nM
- IC50, HEK293 ST2 NFkB (human IL-33 (mm2) [9]): 0.017 nM

B5: IL33-12 (antibody, human IgG1, kappa, V domains shown)
VH: EVQLVESGGGLVQPGGSLRLSCAASGFTFSSYWMYWVRQAPGKGLEWVASINNDGGNTYYLDSVKGRFTISRDNAKNSLYLQMNSLRAEDTAVYYCARGHYYYTSYSLGYWGQGTLVTVSS
VL: DIQMTQSPSSLSASVGDRVTITCKASQNINKHLDWYQQKPGKAPKLLIYFTNNLQTGVPSRFSGSGSGTDFTLTISSLQPEDFATYYCFQYNNGWTFGGGTKVEIKR
- IC50, HEK293 ST2 NFkB [20]: 0.943 nM
- IC50, HEK293 ST2 NFkB (human IL-33 (mm2) [21]): 0.14 nM
- IC50, HEK293 ST2 NFkB [8]: 3.46 nM
- IC50, HEK293 ST2 NFkB (human IL-33 (mm2) [9]): 0.144 nM

B6: IL33-103 (antibody, human IgG1, kappa, V domains shown)
VH: EVQLVESGGGLVQPGGSLRLSCAASGFTFSSYWMYWVRQAPGKGLEWVAAITPNGGETYYPDSVKGRFTISRDNAKNSLYLQMNSLRAEDTAVYYCARGHYYYTSYSLGYWGQGTLVTVSS
VL: DIQMTQSPSSLSASVGDRVTITCKASQNINKHLDWYQQKPGKAPKLLIYFTNNLQTGVPSRFSGSGSGTDFTLTISSLQPEDFATYYCFQYNNGWTFGGGTKVEIKR
- IC50, HEK293 ST2 NFkB WT IL-33 (human IL-33 WT (R&D) [5]): 0.178 nM
- IC50, HEK293 ST2 NFkB cyno IL-33 [6]: 0.07 nM
- IC50, HEK293 ST2 NFkB mm2 (human IL-33 (mm2) [7]): 0.028 nM
- IC50, whole blood IFNγ (human IL-33 (mm2) [7]): 0.104 nM

Other lines, results leading:

- Ratio of cynomolgus monkey KD/human KD [1]: 57.8
- Kd [2]: 1.62 nM
- koff [2]: 0.0038 s⁻¹
- kon [2]: 2.58e+06 M⁻¹ s⁻¹
- Kd [3]: 0.028 nM
- koff [3]: 8.07e-05 s⁻¹
- kon [3]: 2.89e+06 M⁻¹ s⁻¹
B1: IL33-265 Fab (Fab, V domains shown)
VH: EVQLVESGGNLEQPGGSLRLSCTASGFTFSRSAMNWVRRAPGKGLEWVSGISGSGGRTYYADSVKGRFTISRDNSKNTLYLQMNSLSAEDTAAYYCAKDSYTTSWYGGMDVWGHGTTVTVSS
VL: DIQMTQSPSSVSASVGDRVTITCRASQGIFSWLAWYQQKPGKAPKLLIYAASSLQSGVPSRFSGSGSGTDFTLTISSLQPEDFAIYYCQQANSVPITFGQGTRLEIKR
notes: Fab fragment

- Kd [4]: 0.0442 nM
- koff [4]: 0.000116 s⁻¹
- kon [4]: 2.55e+06 M⁻¹ s⁻¹
B2: rat 7E8 Fab (Fab, V domains shown)
VH: EVQLVETGGGLVQPGRSLKLSCKTSGFTFSSYWMYWIRQAPGKGLEWVSSITPNGGNTYYPDSVKGRFTISRDNAENTIYLQMSSLRSEDTATYFCAKGHYYYTSYSLGYWGQGSLVTVSS
VL: EIQMTQSPSVLSASVGDRVTLSCKASQNINKHLDWYQQKLGEAPKLLIYFTNNLQTGIPSRFSGSGSGTDCTLTINSLQPGDVATYFCFQYNNGWTFGGGTKLELD
notes: Fab of the parental rat antibody; also called parental rat Fab 7E8

- IC50, HEK293 ST2 NFkB (human IL-33 WT (R&D) [10]): 0.685 nM
- IC50, HEK293 ST2 NFkB [11]: 0.162 nM
- IC50, HEK293 ST2 NFkB (human IL-33 (mm2) [12]): 0.13 nM
- IC50, IFN-γ production in human PBMC (human IL-33 (mm2) [13]): 0.0011 nM
- Cynomolgus monkey:human IC50 ratio: wild-type IL-33 [14]: 6.2
- IC50, HEK293 ST2 NFkB (DTT-pretreated IL-33) [14]: 1.56 nM
- IC50, HEK293 ST2 NFkB (DTT-pretreated IL-33) (human IL-33 WT (R&D) [15]): 0.25 nM
- Cynomolgus monkey:human IC50 ratio: cysteine mutant IL-33 [16]: 1
- IC50, HEK293 ST2 NFkB [16]: 0.036 nM
- IC50, HEK293 ST2 NFkB (human IL-33 (mm2) [17]): 0.037 nM
- IC50, human whole blood (human IL-33 WT (R&D) [18]): 0.451 nM
- IC50, human whole blood (human IL-33 (mm2) [19]): 0.013 nM
B4: IL33-167LS (antibody, human IgG1, kappa)
heavy: EVQLVESGGGLVQPGGSLRLSCAASGFTFSSYWMYWVRQAPGKGLEWVASITPNAGEDYYPDSVKGRFTISRDNAKNSLYLQMNSLRAEDTAVYYCARGHYYYTSYSLGYWGQGTLVTVSSASTKGPSVFPLAPSSKSTSGGTAALGCLVKDYFPEPVTVSWNSGALTSGVHTFPAVLQSSGLYSLSSVVTVPSSSLGTQTYICNVNHKPSNTKVDKKVEPKSCDKTHTCPPCPAPEAAGAPSVFLFPPKPKDTLMISRTPEVTCVVVDVSHEDPEVKFNWYVDGVEVHNAKTKPREEQYNSTYRVVSVLTVLHQDWLNGKEYKCKVSNKALPAPIEKTISKAKGQPREPQVYTLPPSREEMTKNQVSLTCLVKGFYPSDIAVEWESNGQPENNYKTTPPVLDSDGSFFLYSKLTVDKSRWQQGNVFSCSVLHEALHSHYTQKSLSLSPG
light: DIQMTQSPSSLSASVGDRVTITCKASQNINKHLDWYQQKPGKAPKLLIYFTNNLQTGVPSRFSGSGSGTDFTLTISSLQPEDFATYYCFQYNNGWTFGGGTKVEIKRTVAAPSVFIFPPSDEQLKSGTASVVCLLNNFYPREAKVQWKVDNALQSGNSQESVTEQDSKDSTYSLSSTLTLSKADYEKHKVYACEVTHQGLSSPVTKSFNRGEC

- IC50, HEK293 ST2 NFkB WT IL-33 (human IL-33 WT (R&D) [5]): 0.155 nM
- IC50, HEK293 ST2 NFkB cyno IL-33 [6]: 0.052 nM
- IC50, whole blood IFNγ (human IL-33 (mm2) [7]): 0.106 nM
B7: IL33-117 (antibody, human IgG1, kappa, V domains shown)
VH: EVQLVESGGGLVQPGGSLRLSCAASGFTFSSYWMYWVRQAPGKGLEWVASITPNGGEDYYPDSVKGRFTISRDNAKNSLYLQMNSLRAEDTAVYYCARGHYYYTSYSLGYWGQGTLVTVSS
VL: DIQMTQSPSSLSASVGDRVTITCKASQNINKHLDWYQQKPGKAPKLLIYFTNNLQTGVPSRFSGSGSGTDFTLTISSLQPEDFATYYCFQYNNGWTFGGGTKVEIKR
